The values that follow come from patent publication US20060217308A1, “Compositions for the treatment of tumor pathologies, comprising internalin B (ln1B) of Listeria monocytogene protein or a fragment thereof” (priority 2005, published 2006).

Common to all, as to assay type: cell-based, human
For experiment [1], the system named is Met. Put plainly: In1B-induced ubiquitination of Met (anti-Met immunoprecipitation, anti-ubiquitin blot) in HeLa cells. How it is done: (A) Listeria monocytogenes EGD (BUG600) (MOI 25) or purified In1B (5 nM) were added (+) for two minutes to HeLa cells. Samples were immunoprecipitated against Met and blotted against ubiquitin using P4D1 monoclonal antibody. (B) In1B was added to HeLa cells for two minutes and samples were re-immunoprecipitated against Met. Samples were blotted against ubiquitin (Ub) or Met. (C) Increasing amounts of In1B were added to HeLa cells (1 to 6 corresponding to 0, 0.22, 0.44, 0.88, 1.75, […], 5 nM respectively) for two minutes. Extracts were immunoprecipitated against Met and blotted against Met or ubiquitin (Ub). (D) As C, but 1 to 6 correspond to 0, 3.5, 10, 20, 40, 80 nM In1B, respectively. (E) 5 nm of purified In1B was added to HeLa cells for the indicated times. Cell extracts were immunoprecipitated (IP) against Met and blotted (WB) against Met or ubiquitin (Ub). At the left of all panels the molecular weight markers are indicated in kDa. In C and D, 8% acrylamide gels were used, while 10% acrylamide gels were used in A, B, and E.
(§1) Cells, bacteria and growth conditions. The human cell line used was HeLa (ATCC number CCL-2) grown as recommended by ATCC. Typically, cells were serum starved for three hours before the addition of In1B. The bacterial strains used were Listeria monocytogenes BUG600 and BUG1461. They were grown in BHI medium, which in the case […] contained 5 μg/ml of erythromycin.
(§2) Assays. Immunoprecipitation, Re-immunoprecipitation, and immunoblots were performed as described before (31). In1B purification was performed as described (54).
It has been previously described that the ubiquitin ligase Cbl is recruited to the Met complex during the first minute after cell treatment with soluble In1B (31). Whether Listeria infection promotes ubiquitination of Met was studied. Epithelial HeLa cells were infected with Listeria monocytogenes (at a m.o.i. 25) or treated with purified In1B (5 nM) (FIG. 1A) for two minutes. Cellular extracts were immunoprecipitated using an antibody that recognizes Met and ubiquitination of immunoprecipitated proteins was tested with an anti-ubiquitin antibody. A clear increase in the amount of ubiquitinated proteins associated with Met was detected after infection with Listeria.
To assess whether the signal observed after In1B treatment corresponded to Met ubiquitination, a re-immunoprecipitation assay was performed. Anti-Met immunoprecipitates from cells samples treated (or not) with In1B were denatured (boiled in presence of 1% SDS), to dissociate Met complexes, and re-immunoprecipitated using anti-Met antibodies. The resulting samples were immunoblotted against ubiquitin (FIG. 1B left panel) and Met (FIG. 1B right panel). Ubiquitin was only detectable in the lane corresponding to In1B treated samples, whereas Met was present in both lanes corresponding to In1B-treated or non-treated samples.
In order to determine the minimal amount of In1B necessary to trigger Met ubiquitination, HeLa cells were treated with increasing amount of In1B for two minutes. Cell extracts were then immunoprecipitated using the anti-Met antibody and blotted with anti ubiquitin or anti Met antibodies (FIGS. 1C and 1D). 1.75 nM of In1B was sufficient to induce ubiquitination of Met. […] Note that ubiquitinated Met migrated slower and than non-ubiquitinated in 8% acrylamide SDS-PAGE gels (FIGS. 1C and 1D), in agreement with an increase in apparent molecular weight of ubiquitinated proteins. Again, Met detection was always weaker after ubiquitination, supporting the previous observation that ubiquitination of Met was leading to Met degradation.
Next, the kinetics of In1B-dependent ubiquitination of Met were tested. In1B (5 nM) was added during increasing time periods to HeLa cells and cell extracts were immunoprecipitated using anti-Met antibodies (FIG. 1E). In1B-induced ubiquitination was maximal two minutes after treatment and declined thereafter. […]

The subject of experiment [2] is Met. Put plainly: Maintenance of InIB-induced degradation of Met in the presence of HGF. As to conditions: HeLa cells, HGF 1 nM + InIB 5 nM, 1% serum medium. How it is done:
FIG. 9 depicts immunodetection of Met from total cell lysates. Serum-containing media (1%) with HGF (1 nM), HGF (1 nM)+InIB (5 nM), or without either HGF or InIB (control) was added to HeLa cells. Cells were recovered at the indicated times after addition of HGF, and HGF+InIB, resuspended in SDS-PAGE sample buffer, and immediately boiled for 5 minutes.
Shortly after InIB treatment, Met is very rapidly degraded. Thus, whether InIB-induced degradation of Met is maintained for longer periods of time was tested. In fact, InIB-induced degradation of Met is maintained in time.

The subject of experiment [3] is Met. Put plainly: In1B-induced degradation of Met, anti-Met immunoblot of total HeLa cell extracts. How it is done: FIG. 2 depicts the degradation and de-novo synthesis of Met. (A) HeLa cells were treated at the indicated times with 5 nM In1B and cellular extracts were blotted against Met. (B) Cells were treated as in A, but blotted at the same time with anti-Met antibody and Streptavidin. Stars indicate nonspecific bands recognized by streptavidin and the square indicates Met. (C) The experiment was performed as in A, but cells were pre-treated with […] of cycloheximide for 90 minutes before addition of In1B. (D) This experiment was performed as in A, but In1B was removed three minutes after it was added. Actin is shown as the loading control in A, C and D. The molecular mass of the markers is indicated in kDa.
as §1, §2
To study In1B-induced degradation of Met in more detail, HeLa cells were treated during increasing periods with In1B (5 nM) and anti-Met immunoblots were performed directly on total cell extracts (FIG. 2A).
When In1B is present, de-novo synthesized Met was in turn ubiquitinated and then degraded (FIG. 2A).
On the technique in general: Immunoblotting shows a protein as a band on a membrane.

Sequence of Met (P08581 25-1390): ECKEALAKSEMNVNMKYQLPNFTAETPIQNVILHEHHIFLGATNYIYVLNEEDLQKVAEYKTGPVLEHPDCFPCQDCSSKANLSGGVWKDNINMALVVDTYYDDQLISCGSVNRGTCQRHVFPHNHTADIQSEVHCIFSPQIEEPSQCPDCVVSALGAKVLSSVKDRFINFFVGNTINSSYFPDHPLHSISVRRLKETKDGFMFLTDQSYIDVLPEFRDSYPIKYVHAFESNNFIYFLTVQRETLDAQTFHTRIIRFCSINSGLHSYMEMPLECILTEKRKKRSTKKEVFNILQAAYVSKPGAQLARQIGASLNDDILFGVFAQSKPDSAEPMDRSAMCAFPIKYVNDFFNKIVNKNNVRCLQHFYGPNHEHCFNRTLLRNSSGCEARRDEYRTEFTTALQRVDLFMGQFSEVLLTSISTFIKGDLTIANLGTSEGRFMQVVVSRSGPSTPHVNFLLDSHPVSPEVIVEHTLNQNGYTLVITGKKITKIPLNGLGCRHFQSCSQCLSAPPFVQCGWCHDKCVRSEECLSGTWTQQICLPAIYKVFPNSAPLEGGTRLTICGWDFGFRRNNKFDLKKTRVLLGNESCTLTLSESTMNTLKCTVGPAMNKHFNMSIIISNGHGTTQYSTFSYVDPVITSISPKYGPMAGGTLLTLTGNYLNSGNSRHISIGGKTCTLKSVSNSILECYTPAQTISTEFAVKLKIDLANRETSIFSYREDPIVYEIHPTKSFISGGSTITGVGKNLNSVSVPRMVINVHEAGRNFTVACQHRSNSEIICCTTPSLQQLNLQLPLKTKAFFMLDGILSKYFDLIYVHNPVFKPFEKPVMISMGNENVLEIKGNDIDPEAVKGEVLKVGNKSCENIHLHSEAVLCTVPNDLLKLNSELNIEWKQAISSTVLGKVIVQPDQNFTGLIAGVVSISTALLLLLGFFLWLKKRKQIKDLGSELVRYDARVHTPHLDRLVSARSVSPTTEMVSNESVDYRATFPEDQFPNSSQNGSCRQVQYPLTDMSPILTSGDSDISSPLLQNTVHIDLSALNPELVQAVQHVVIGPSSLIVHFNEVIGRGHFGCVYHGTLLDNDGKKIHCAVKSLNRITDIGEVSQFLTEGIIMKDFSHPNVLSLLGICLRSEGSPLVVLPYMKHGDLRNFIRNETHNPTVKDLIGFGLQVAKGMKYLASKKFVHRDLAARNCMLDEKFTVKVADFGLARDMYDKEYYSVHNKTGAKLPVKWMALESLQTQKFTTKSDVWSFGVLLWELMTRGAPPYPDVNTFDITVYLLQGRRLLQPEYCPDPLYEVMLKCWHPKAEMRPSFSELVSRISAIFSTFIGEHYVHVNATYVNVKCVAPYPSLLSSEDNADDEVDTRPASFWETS

B1: In1B: Listeria monocytogenes surface protein of the internalin family that interacts with Met; purified soluble protein (protein, UniProt P0DQD2 31-630, looked up)
Internalin B: AKVQAETITVPTPIKQIFSDDAFAETIKDNLKKKSVTDAVTQNELNSIDQIIANNSDIKSVQGIQYLPNVTKLFLNGNKLTDIKPLANLKNLGWLFLDENKVKDLSSLKDLKKLKSLSLEHNGISDINGLVHLPQLESLYLGNNKITDITVLSRLTKLDTLSLEDNQISDIVPLAGLTKLQNLYLSKNHISDLRALAGLKNLDVLELFSQECLNKPINHQSNLVVPNTVKNTDGSLVTPEIISDDGDYEKPNVKWHLPEFTNEVSFIFYQPVTIGKAKARFHGRVTQPLKEVYTVSYDVDGTVIKTKVEAGTRITAPKPPTKQGYVFKGWYTEKNGGHEWNFNTDYMSGNDFTLYAVFKAETTEKAVNLTRYVKYIRGNAGIYKLPREDNSLKQGTLASHRCKALTVDREARNGGKLWYRLKNIGWTKAENLSLDRYDKMEYDKGVTAYARVRNASGNSVWTKPYNTAGAKHVNKLSVYQGKNMRILREAKTPITTWYQFSIGGKVIGWVDTRALNTFYKQSMEKPTRLTRYVSANKAGESYYKVPVADNPVKRGTLAKYKNQKLIVDCQATIEGQLWYRIRTSSTFIGWTKAANLRAQK
For B1, in the experiment on Met [1] (In1B 5 nM), the “time of maximal In1B-induced ubiquitination of Met” value is “two” and the “time of new wave of Met ubiquitination after addition of In1B” value turned out to be 30 min. In addition, in the experiment with Met [1] (In1B 5 nM, anti-Met blot of immunoprecipitates), the “time at which a new band corresponding to Met appeared after addition of In1B” value amounted to 15 min. Further, in the experiment with Met [1] (In1B two minutes, re-immunoprecipitated anti-Met, blot anti-ubiquitin), the “ubiquitination of Met after In1B treatment (re-immunoprecipitation assay)” value is “induces the ubiquitination of Met”. For the same molecule, the “minimal amount of In1B necessary to trigger Met ubiquitination” value in the experiment with Met [1] (increasing amount of In1B for two minutes) was 1.75 nM. Also, the “Met ubiquitination using higher amount of In1B” value in the experiment on Met [1] (two minutes, 3.5 to 80 nM In1B (FIG. 1D)) is “did not significantly increase”. In addition, the “time for which InIB-induced degradation of Met is maintained” value with Met [2] is reported as “at least 24 hours”. In addition, in the experiment with Met [3], the “time after addition at which In1B-induced degradation of Met is observable” value is reported as “one”. For the same molecule, in the experiment on Met [3] (HeLa cells, In1B 5 nM, 2 minutes), the “total amount of Met two minutes after addition of In1B” value was “strongly reduced”. Moreover, the “specificity of the In1B effect for Met versus other cellular proteins” value in the experiment on Met [3] (HeLa cells, In1B 5 nM, blot with anti-Met antibody and Streptavidin, actin control) was “only affected the amount of Met”. The “degradation of re-synthesized Met when In1B was removed from the medium” value in the experiment on Met [3] (HeLa cells, In1B removed three minutes after addition, 15 minutes after initial exposure) is given as “no degradation of Met was observed”.
